Publication PMC3176149, “Application of Celluspots peptide arrays for the analysis of the binding specificity of epigenetic reading domains to modified histone tails” (BMC Biochemistry, 2011)

Molecular target: FITC-coupled H3K9me3-S10ph peptide (amino acids 1-19) (UniProt P68431)
Assay: fluorescence polarisation; fluorescence depolarization in solution, purified FITC-coupled H3 1-19 peptides, Varian Carry Eclipse spectrophotometer, as described [40]; fit to a binary binding equilibrium

MPP8 Chromo domain (M-phase phosphoprotein 8), GST fusion (from UniProt Q99549 58-112) (domain or fragment)
Kd: > 50 µM
